± gives the standard deviation of the averaged measurements.
Test system: Saccharomyces cerevisiae
Assay: protein stability index of tFT-peptide fusion (C-terminal peptide) (PSI (0-1 scale)); higher = more stable (slower turnover)
Details: temperature: 30 C
Procedure: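 MPS profiling in S. cerevisiae of the yeast C-terminome library: the last 12 aa of each annotated ORF are fused to the C-terminus of a sfGFP-mCherry timer, after a GGGS linker. Cells are FACS-sorted into 8 mCherry/sfGFP bins and deep-sequenced. PSI runs from 0 (unstable) to 1 (stable); wild type and das1Δ backgrounds, two technical replicates each.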

[1] = genetic background: das1 deletion

| Sequence | protein stability index [1] | protein stability index (genetic background: wild type) |
| --- | --- | --- |
| RHSCGRQMRVLA [AUA1 C-terminal 12 aa] | 0.6614 ± 0.0011 | 0.248 ± 0.0083 |
| ENLRLKLKNFLR [MSH5 C-terminal 12 aa] | 0.683 ± 0.0095 | 0.688 ± 0.022 |
| NPSILGDFTRED [RTR1 C-terminal 12 aa] | 0.663 ± 0.015 | 0.715 ± 0.02 |
| PGVDVEVVVASN [RPS20 C-terminal 12 aa] | 0.669 ± 0.0061 | 0.702 ± 0.038 |
| KVKCALERKPYL [ZAP1 C-terminal 12 aa] | 0.706 ± 0.05 | 0.6754 ± 0.00096 |
| INIQQFAALLSK [CMD1 C-terminal 12 aa] | 0.66 ± 0.0085 | 0.68 ± 0.0055 |
| QEFVCFLFWPLT [YOR335W-A C-terminal 12 aa] | 0.63 ± 0.0097 | 0.6034 ± 0.0059 |
| LCSIYKALLLGP [ATF1 C-terminal 12 aa] | 0.6813 ± 0.0019 | 0.67 ± 0.0087 |
| GECVLTKNNKFT [ATG21 C-terminal 12 aa] | 0.672 ± 0.034 | 0.652 ± 0.026 |
| MHQYSAIIPSGT [YJL182C C-terminal 12 aa] | 0.642 ± 0.019 | 0.603 ± 0.0061 |
| RKLLERSNKFHI [PET127 C-terminal 12 aa] | 0.689 ± 0.009 | 0.746 ± 0.088 |
| EALPPCLQIFRP [YDR354C-A C-terminal 12 aa] | 0.701 ± 0.0091 | 0.6739 ± 0.0039 |
| FAAPIKPSTRAG [YLR347W-A C-terminal 12 aa] | 0.6876 ± 0.0016 | 0.71 ± 0.0086 |
| KDEDEEADEDMK [PRE9 C-terminal 12 aa] | 0.711 ± 0.033 | 0.694 ± 0.014 |
| STERAKELLESN [MRF1 C-terminal 12 aa] | 0.666 ± 0.026 | 0.69 ± 0.033 |
| NASYTKKYVPHP [YPR059C C-terminal 12 aa] | 0.682 ± 0.0097 | 0.703 ± 0.063 |
| VGRKPRLPKGKL [YCL002C C-terminal 12 aa] | 0.758 ± 0.021 | 0.842 ± 0.024 |
| FGIWNTDMSVWS [YBL081W C-terminal 12 aa] | 0.699 ± 0.017 | 0.7253 ± 0.0045 |
| YTTVLSSQSSKL [PEX8 C-terminal 12 aa] | 0.783 ± 0.013 | 0.855 ± 0.091 |
| LNPIRSLRYCNY [YPP1 C-terminal 12 aa] | 0.7156 ± 0.0026 | 0.629 ± 0.024 |
| YVVKGWCDSRFL [GIS3 C-terminal 12 aa] | 0.72 ± 0.01 | 0.701 ± 0.016 |

| Sequence | protein stability index [1] | protein stability index (genetic background: wild type) |
| --- | --- | --- |
| RMIEYLEEYQAW [FRE4 C-terminal 12 aa] | 0.706 ± 0.0073 | 0.72 ± 0.011 |
| CHLLFGTHKKTL [YBL071C-B C-terminal 12 aa] | 0.7233 ± 0.002 | 0.6921 ± 0.003 |
| DDAVNCNTSNCL [ZRC1 C-terminal 12 aa] | 0.7026 ± 0.002 | 0.698 ± 0.017 |
| YEYHTEEDVMYA [YGR130C C-terminal 12 aa] | 0.703 ± 0.013 | 0.684 ± 0.044 |
| IQKLEEARNPQF [UPS1 C-terminal 12 aa] | 0.704 ± 0.046 | 0.718 ± 0.034 |
| NTSRIAKFFNRR [SEC15 C-terminal 12 aa] | 0.702 ± 0.031 | 0.70527 ± 7.1e-05 |
| VTVSNVWFNQLQ [YPL197C C-terminal 12 aa] | 0.70615 ± 0.00045 | 0.526 ± 0.014 |
| KQKEAWYSFLFK [SCO1 C-terminal 12 aa] | 0.7138 ± 0.0035 | 0.68151 ± 0.00058 |
| PMIKRQCEIIQF [TIP41 C-terminal 12 aa] | 0.645 ± 0.029 | 0.676 ± 0.0097 |
| HIFEKKIFHTNL [YOL097W-A C-terminal 12 aa] | 0.706 ± 0.018 | 0.65 ± 0.027 |
| HENSKCFTHYLI [AFR1 C-terminal 12 aa] | 0.684 ± 0.035 | 0.6605 ± 0.0065 |
| SMKYPHTAALVR [YLR111W C-terminal 12 aa] | 0.578 ± 0.027 | 0.653 ± 0.072 |
| CFFLRKENGKDE [YLR120W-A C-terminal 12 aa] | 0.709 ± 0.041 | 0.687 ± 0.017 |
| LSFVLASLNANK [FUN14 C-terminal 12 aa] | 0.678 ± 0.021 | 0.67 ± 0.037 |
| LLIQEEMKLKEV [YPK9 C-terminal 12 aa] | 0.7188 ± 0.0014 | 0.703 ± 0.022 |
| SDLQKMLNKRKS [CWC24 C-terminal 12 aa] | 0.69 ± 0.025 | 0.682 ± 0.0099 |
| GRNKIYILFNVL [YMR030W-A C-terminal 12 aa] | 0.6466 ± 0.0047 | 0.116 ± 0.0082 |
| MVKIRTKNDAKN [TAF2 C-terminal 12 aa] | 0.7067 ± 0.0054 | 0.6135 ± 0.00067 |
| TDLENETFIYPL [YCT1 C-terminal 12 aa] | 0.722 ± 0.022 | 0.793 ± 0.072 |
| GTVNYAGLHDEL [SED4 C-terminal 12 aa] | 0.687 ± 0.034 | 0.723 ± 0.044 |
